Laboratory results taken from patent publication US20240158497A1 (published 2024).

T1: Macaca fascicularis GP130 extracellular domain expressed with a C-terminal myc-myc-hexahistidine tag (Macaca fascicularis, UniProt P40189 23-619 (human entry))
T1 construct: Monomeric reagent; also called mfGP130-mmH; mfGP130-MMH
T1 chain: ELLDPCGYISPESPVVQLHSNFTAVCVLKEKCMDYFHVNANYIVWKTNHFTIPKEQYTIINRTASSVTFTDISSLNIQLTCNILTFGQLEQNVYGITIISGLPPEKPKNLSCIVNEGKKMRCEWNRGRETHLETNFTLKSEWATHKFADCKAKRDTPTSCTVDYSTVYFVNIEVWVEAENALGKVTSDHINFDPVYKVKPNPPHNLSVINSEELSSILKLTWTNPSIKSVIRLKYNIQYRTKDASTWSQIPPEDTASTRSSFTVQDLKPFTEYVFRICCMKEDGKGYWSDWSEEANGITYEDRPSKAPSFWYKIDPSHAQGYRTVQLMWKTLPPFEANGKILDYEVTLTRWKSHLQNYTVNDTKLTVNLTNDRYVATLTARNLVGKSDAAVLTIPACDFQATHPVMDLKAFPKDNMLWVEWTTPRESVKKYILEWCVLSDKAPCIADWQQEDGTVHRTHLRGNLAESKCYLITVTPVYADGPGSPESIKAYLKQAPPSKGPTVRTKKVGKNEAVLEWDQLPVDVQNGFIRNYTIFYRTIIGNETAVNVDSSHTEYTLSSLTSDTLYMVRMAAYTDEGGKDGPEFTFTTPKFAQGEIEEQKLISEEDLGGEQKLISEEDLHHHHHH

B1: MAb16636 (antibody, V domains shown)
VH: QLQLQESGPGLVKPSETLSLICTVSGGSISSNNYYWGWIRQPPGKGLEWIGNLYGSGSTYYNPSLKSRVTISVDTSKNQFSLKLSFVTAADTAVYHCARWDTNGGAFDIWGQGTMVTVSS
VL: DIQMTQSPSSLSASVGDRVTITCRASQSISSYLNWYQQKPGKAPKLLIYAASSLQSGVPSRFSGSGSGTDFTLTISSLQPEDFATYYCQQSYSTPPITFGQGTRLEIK
B2: MAb16662 (antibody, V domains shown)
VH: EVQLVESGGGLVQPGGSLRLSCTASGFTFSNYAIFWVRQAPGKGLEYVSGISNNGVTKYYADSVRDRFTISRDNSRNTVSIQMDSLRTEDMAVYYCARENWGSDDGFDIWGQGTMVTVSS
VL: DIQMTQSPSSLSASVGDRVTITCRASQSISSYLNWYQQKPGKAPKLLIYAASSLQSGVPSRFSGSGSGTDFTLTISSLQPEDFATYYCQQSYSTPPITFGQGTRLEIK
B3: MAb16656 (antibody, V domains shown)
VH: EVQLVESGGGLVQPGRSLRLSCAASGFTLDDFAMHWVRQAPGKGLEWVSGISWNSGNIGYADSVKGRFTISRDNARNSLYLQMNSLRAEDTALYYCTSGYYLYYAMDVWGQGTTVTVSS
VL: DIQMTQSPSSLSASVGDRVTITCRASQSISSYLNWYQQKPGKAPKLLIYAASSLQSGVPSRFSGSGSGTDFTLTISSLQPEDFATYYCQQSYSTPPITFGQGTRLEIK
B4: MAb16676 (antibody, V domains shown)
VH: QVQLVQSGAEVMKPGASVKVSCRASGYTFSSYDINWVRQAPGQGLEWMGWISTATGNTNYPQKVQGRVTMTTDTSTNTAYMELRSLRSDDTAVYYCTREGNSKGWLDPWGQGTLVTVSS
VL: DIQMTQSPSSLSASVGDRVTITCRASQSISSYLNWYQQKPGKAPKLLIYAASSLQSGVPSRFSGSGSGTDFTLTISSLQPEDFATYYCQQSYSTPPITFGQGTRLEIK
B5: MAb16673 (antibody, V domains shown)
VH: EVQLVQSGAEVKKPGESLKISCKGSGYSFTSYWIDWVRQMPGKGLEWMGIIYPDDSDTRYSPSFQGQVTMSVDKSISTAYLQWSSLKASDTAIYYCARHERGIVEAGTDYYYYYGMDVWGQGTTVTVSS
VL: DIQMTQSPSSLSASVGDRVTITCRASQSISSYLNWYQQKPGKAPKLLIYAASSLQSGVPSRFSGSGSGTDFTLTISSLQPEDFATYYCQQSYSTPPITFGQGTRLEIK
B6: MAb16665 (antibody, V domains shown)
VH: QVQLVESGGGVVQPGRSLRLACAASGFTFRSYGMHWVRQAPGKGLEWVAVIWYDGSNKYYTDSVKGRFTISRDNSKNTLYLQMNSLRAEDTAMYYCAIDKWATVTTYLFDYWGQGTLVTVSS
VL: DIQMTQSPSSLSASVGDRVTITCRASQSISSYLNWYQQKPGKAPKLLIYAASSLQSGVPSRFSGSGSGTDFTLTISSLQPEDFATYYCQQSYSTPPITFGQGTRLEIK
B7: MAb16637 (antibody, V domains shown)
VH: QVQLVQSGAEVKKPGASVKVSCKASGYTFTSLGISWVRQAPGQGLEWMGWISAYSGNRDYAQKFQGRVTMTTDTSTSTAYMELRSLRSDDTAVYYCARSLRFDYWGQGTLVTVSS
VL: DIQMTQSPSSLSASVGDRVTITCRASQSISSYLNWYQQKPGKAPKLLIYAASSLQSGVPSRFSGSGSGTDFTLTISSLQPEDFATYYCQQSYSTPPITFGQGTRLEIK
B8: MAb16666 (antibody, V domains shown)
VH: EVQLVESGGGLVQSGGSLRLSCAASGFTFSRYEMNWVRQAPGKGLEWVAYISNTGTTRDYSDSVKGRFTISRDNAKNSLYLQMSSLRVEDTAVYYCVREKFSGTSDWFDPWGQGTLVTVSS
VL: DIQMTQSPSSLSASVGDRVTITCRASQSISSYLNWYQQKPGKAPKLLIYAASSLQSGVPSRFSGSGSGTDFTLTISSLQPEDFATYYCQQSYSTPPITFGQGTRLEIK
B9: MAb16623 (antibody, V domains shown)
VH: EVQLVESGGGLVQPGGSLRLSCAASGLTFSSYEMNWVRQAPGKGLEWVSHISSAGSTKYYADSVKGRFTISRDNAKNSLFLQMNSLRAEDTAIYYCAGYNYAYYYFGVDVWGQGTTVTVSS
VL: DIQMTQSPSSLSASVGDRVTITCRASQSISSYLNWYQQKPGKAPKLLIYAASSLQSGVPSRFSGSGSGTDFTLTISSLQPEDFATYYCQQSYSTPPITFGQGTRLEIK
B10: MAb16669 (antibody, V domains shown)
VH: EVQLVESGGGLVQPGGSLRLSCAASGFTFSSYAMNWVRQAPGKGLEWVSAISGSGDSTYYTDSVKGRFTISRDNSKNTLYLQMNTLRAEDTAVYYCAKEEIVMLVGATPGWFDPWGQGTLVTVSS
VL: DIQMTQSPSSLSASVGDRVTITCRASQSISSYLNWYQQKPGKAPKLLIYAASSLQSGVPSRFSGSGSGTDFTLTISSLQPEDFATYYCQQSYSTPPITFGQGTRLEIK
B11: MAb16664 (antibody, V domains shown)
VH: QVQLVQSGTEVKKPGSSVKVSCKASGGTFSTYPINWVRQAPGQGLEWMGGIIPIFGTASYAQKFQGRVAITTDESTSTAYMELNSLRSEDTAVYYCARERPNWGSNDYWGQGTLVTVSS
VL: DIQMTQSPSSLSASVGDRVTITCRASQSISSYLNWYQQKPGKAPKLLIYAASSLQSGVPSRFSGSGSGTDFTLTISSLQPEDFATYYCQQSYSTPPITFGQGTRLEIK
B12: MAb16659 (antibody, V domains shown)
VH: QVQLVQSGPEVKKPGSSVKVSCKASGGTIDRNEITWVRQAPGQGLEWMGVIIPILGEAHYERKFQGRLTITMDESTSTAYMELSNLRSEDTAVYYCARERAARGYLDYWGQGTLVTVSS
VL: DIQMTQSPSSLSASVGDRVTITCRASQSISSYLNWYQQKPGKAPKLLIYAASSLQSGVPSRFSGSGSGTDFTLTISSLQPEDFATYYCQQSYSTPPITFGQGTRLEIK

Target: T1, Macaca fascicularis GP130 extracellular …
Assay: SPR (Biacore 4000), mAb captured on anti-human Fc, 25 C
Experimental: (§1) Equilibrium dissociation constant (KD) for different GP130 reagents binding to purified anti-GP130 monoclonal antibodies were determined using a real-time surface plasmon resonance based Biacore 4000 biosensor. All binding studies were performed in 10 mM HEPES, 150 mM NaCl, 3 mM EDTA, and 0.05% v/v Surfactant Tween-20, pH 7.4 (HBS-ET) running buffer at 25° C. and 37° C. The Biacore sensor surface was first derivatized by amine coupling with a monoclonal mouse anti-human Fc antibody (GE, #BR-1008-39) to capture anti-GP130 monoclonal antibodies. […] Reagents tagged with “mmH” are monomeric, whereas reagents tagged with “mFc” are dimeric. Thus, for example, “hGP130-mmH” is also referred to as “monomeric human GP130,” and “hGP130-mFc” is also referred to as “dimeric human GP130.”
(§2) The association rate (k a) and dissociation rate (kd) were determined by fitting the real-time binding sensorgrams to a 1:1 binding model with mass transport limitation using Scrubber 2.0c curve-fitting software. Binding dissociation equilibrium constant (KD) and dissociative half-life (t ½) were calculated from the kinetic rates as: […]

Row | 100 nM Ag Bound [RU] | Kd [nM] | koff [s⁻¹] | kon [M⁻¹ s⁻¹] | t½ [min] | binding result | Binder
1 | 23 | 107 | 0.00216 | 20100 | 5 | – | B1
2 | 15 | 184 | 0.038 | 207000 | 0.3 | – | B2
3 | 42 | 19 | 0.000846 | 44400 | 14 | – | B3
4 | 49 | 2.2 | 0.000597 | 272000 | 19 | – | B4
5 | 86 | 22.2 | 0.00693 | 312000 | 1.7 | – | B5
6 | 16 | 233 | 0.0505 | 217000 | 0.2 | – | B6
7 | 87 | 15.9 | 0.00109 | 68300 | 11 | – | B7
8 | 123 | 18.3 | 0.0053 | 290000 | 2.2 | – | B8
9 | 74 | 25.5 | 0.00476 | 187000 | 2.4 | – | B9
10 | 3 | – | – | – | – | no binding (tested: 100 nM) | B10
11 | 13 | 3.21 | 0.00175 | 543000 | 7 | – | B11
12 | 74 | 0.812 | 0.00044 | 542000 | 26 | – | B12

These binders were tested against T2, human GP130 extracellular domain expressed with a C-terminal myc-myc-hexahistidine tag (human, UniProt P40189 23-619) (assay: SPR (Biacore 4000), mAb captured on anti-human Fc, 37 C).
T2 construct: Monomeric reagent; also called hGP130-mmH; hGP130-MMH
Experimental: as §1, §2

Row | 100 nM Ag Bound [RU] | Kd [nM] | koff [s⁻¹] | kon [M⁻¹ s⁻¹] | t½ [min] | Binder
13 | 50 | 71.6 | 0.00441 | 61600 | 2.6 | B1
14 | 17 | 134 | 0.0585 | 436000 | 0.2 | B2
15 | 50 | 60.7 | 0.00426 | 70100 | 2.7 | B3
16 | 52 | 6.01 | 0.00236 | 393000 | 5 | B4
17 | 40 | 75.4 | 0.0404 | 536000 | 0.3 | B5
18 | 19 | 164 | 0.0693 | 423000 | 0.2 | B6
19 | 110 | 17.3 | 0.00342 | 197000 | 3 | B7
20 | 104 | 17.1 | 0.0101 | 588000 | 1.1 | B8
21 | 68 | 32.2 | 0.0123 | 381000 | 0.9 | B9
22 | 25 | 19.3 | 0.00106 | 55100 | 11 | B10
23 | 16 | 14.2 | 0.00826 | 580000 | 1.4 | B11
24 | 82 | 1.84 | 0.00171 | 928000 | 7 | B12

Target: T1, Macaca fascicularis GP130 extracellular …
Assay: as above
Experimental: as §1, §2

Row | 100 nM Ag Bound [RU] | Kd [nM] | koff [s⁻¹] | kon [M⁻¹ s⁻¹] | t½ [min] | Binder
25 | 25 | 239 | 0.00945 | 39500 | 1.2 | B1
26 | 14 | 167 | 0.0592 | 355000 | 0.2 | B2
27 | 47 | 61.3 | 0.00411 | 67000 | 2.8 | B3
28 | 48 | 7.12 | 0.00243 | 341000 | 5 | B4
29 | 64 | 34.1 | 0.0211 | 617000 | 0.5 | B5
30 | 14 | 205 | 0.101 | 492000 | 0.1 | B6
31 | 104 | 14.8 | 0.00263 | 178000 | 4 | B7
32 | 90 | 24.7 | 0.0131 | 528000 | 0.9 | B8
33 | 60 | 44.3 | 0.0156 | 352000 | 0.7 | B9
34 | 8 | – | – | – | – | B10
35 | 16 | 11.6 | 0.00788 | 680000 | 1.5 | B11
36 | 78 | 2.34 | 0.00174 | 747000 | 7 | B12
